The target of the test is Sudan Ebolavirus, Boniface (Bei Resources NR-31810; sonicated, gamma-irradiated infected Vero E6 cell pellets).

“And” between values parts separate entries of the source, which are not always exact repeats. Identical values can stand only once.

On to “preformed immune complex of peroxidase-rabbit anti-peroxidase IgG (PAP complex) (from UniProt P00433 31-338)”, for which the OD 405 nm is 1.42 OD 405 nm and 1.29 OD 405 nm and 1.08 OD 405 nm.

(Values after patent US20170360875A1 (priority 2014, published 2017).)
